In article PMC8551457:
Entries after “also recorded” stand apart in the source; their conditions may differ.

What was measured:
[1] = molecular target: phytochrome-associated protein phosphatase 5 from Arabidopsis thaliana (AtPAPP5), isoform 2, 1-484, affinity tag removed, labelled with a green maleimide dye (Arabidopsis thaliana) (UniProt Q84XU2); test: MST; labelled AtPAPP5 at 50 nM, AtPhyB(1-651) variant titrated (S86D 4 nM to 70 uM, S84D 2 nM to 29 uM); 100 uM arachidonic acid (AA) added, 15 min incubation; 25 °C; premium coated capillaries; 1:1 binding model; apparent KD; phytochrome in photodynamical equilibrium with prevalence of Pfr
Sequence of UniProt Q84XU2 (Q84XU2 other isoform, or with tags, fused parts or gaps): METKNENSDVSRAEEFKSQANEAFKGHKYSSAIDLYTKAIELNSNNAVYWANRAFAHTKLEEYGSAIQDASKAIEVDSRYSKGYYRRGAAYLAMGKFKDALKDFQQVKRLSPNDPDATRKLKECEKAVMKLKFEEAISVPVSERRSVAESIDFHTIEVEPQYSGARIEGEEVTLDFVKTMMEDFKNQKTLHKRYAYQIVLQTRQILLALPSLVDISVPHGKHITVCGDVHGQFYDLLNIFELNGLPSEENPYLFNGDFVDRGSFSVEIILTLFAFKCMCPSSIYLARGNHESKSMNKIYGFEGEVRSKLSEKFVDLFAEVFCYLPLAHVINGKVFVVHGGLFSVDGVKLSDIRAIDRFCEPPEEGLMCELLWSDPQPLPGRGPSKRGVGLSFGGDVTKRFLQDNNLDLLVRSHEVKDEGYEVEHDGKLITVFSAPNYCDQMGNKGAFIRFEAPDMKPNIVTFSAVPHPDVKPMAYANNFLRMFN

[2] = phosphorylation at S86

| Substance | Kd [1] [nM] | other [2] |
| --- | --- | --- |
| AtPhyB(1-651) S84D, phosphomimetic variant of the photosensory module of Arabidopsis thaliana phytochrome B (domain or fragment) | 1300 |  |
| AtPhyB(1-651) S86D, phosphomimetic variant of the photosensory module of Arabidopsis thaliana phytochrome B (domain or fragment) | 1800 |  |
| phytochrome B (AtPhyB): S86D phosphomimetic |  | increases, dark conversion t1/2 40 min vs 270 min for wild type; also recorded: changes, 5 nm bathochromic shift of the Pfr absorption maximum |
